Entries after “also recorded” stand apart in the source; their conditions may differ.
Key:
Klotho ectodomain = target: T1, Klotho ectodomain (Mus musculus, UniProt O35082); assay: SPR: Klotho ectodomain passed over immobilized FGF23; type: binding, murine
T1 construct: The ectodomain of murine Klotho (A35 to K982) was purified from culture media; FLAG (C); made in house; host or cells: HEK293 (secreted into culture media)
T1 sequence (O35082 35-982): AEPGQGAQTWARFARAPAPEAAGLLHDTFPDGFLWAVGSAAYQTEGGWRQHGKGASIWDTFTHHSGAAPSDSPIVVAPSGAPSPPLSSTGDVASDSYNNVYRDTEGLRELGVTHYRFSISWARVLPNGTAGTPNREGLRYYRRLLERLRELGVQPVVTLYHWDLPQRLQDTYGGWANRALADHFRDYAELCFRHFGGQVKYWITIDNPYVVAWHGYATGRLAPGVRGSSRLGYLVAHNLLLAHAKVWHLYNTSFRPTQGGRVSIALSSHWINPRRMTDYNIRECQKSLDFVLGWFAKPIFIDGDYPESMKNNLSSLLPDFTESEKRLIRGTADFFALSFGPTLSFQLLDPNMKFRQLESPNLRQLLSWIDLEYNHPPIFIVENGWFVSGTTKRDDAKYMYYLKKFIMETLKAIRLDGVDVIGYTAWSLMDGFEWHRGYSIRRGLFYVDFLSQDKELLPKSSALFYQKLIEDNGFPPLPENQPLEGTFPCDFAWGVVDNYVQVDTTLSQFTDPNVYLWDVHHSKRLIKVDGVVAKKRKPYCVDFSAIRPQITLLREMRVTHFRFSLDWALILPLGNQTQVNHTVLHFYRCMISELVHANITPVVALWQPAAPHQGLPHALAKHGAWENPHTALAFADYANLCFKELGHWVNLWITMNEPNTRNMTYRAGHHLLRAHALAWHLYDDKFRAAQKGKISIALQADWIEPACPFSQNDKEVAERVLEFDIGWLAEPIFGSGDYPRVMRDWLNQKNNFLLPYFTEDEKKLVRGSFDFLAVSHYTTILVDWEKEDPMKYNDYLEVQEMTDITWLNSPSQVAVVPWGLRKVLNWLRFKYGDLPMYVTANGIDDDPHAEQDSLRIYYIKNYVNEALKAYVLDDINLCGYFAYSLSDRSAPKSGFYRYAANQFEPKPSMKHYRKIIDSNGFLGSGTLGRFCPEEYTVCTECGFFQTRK
Description: Surface plasmon resonance (SPR) spectroscopy experiments were performed on a Biacore 2000 instrument (Biacore AB), and FGF23-FGFR1c-Klotho interactions were studied at 25° C. in HBS-EP buffer (10 mM HEPES-NaOH, pH 7.4, 150 mM NaCl, 3 mM EDTA, 0.005% (v/v) polysorbate 20). Proteins were immobilized by amine coupling on flow channels of research grade CM5 chips (Biacore AB). Proteins were injected over a CM5 chip at a flow rate of 50 μl min^−1, and at the end of each protein injection (180 s), HBS-EP buffer (50 μl min^−1) was flowed over the chip to monitor dissociation for 180 s. The chip surface was then regenerated by injecting 50 μl of 2.0 M NaCl in 10 mM sodium acetate, pH 4.5. To control for nonspecific binding in experiments where Klotho ectodomain was immobilized on the chip, β-glucuronidase was coupled to the control flow channel of the chip (˜26-32 fmole/mm^2). […] The data were processed with BiaEvaluation software (Biacore AB). For each protein injection over a Klotho chip, the nonspecific responses from the β-glucuronidase control flow channel were subtracted from the responses recorded for the Klotho flow channel. Similarly, for each protein injection over a FGF chip, the nonspecific responses from the FHF1B control flow channel were subtracted from the responses recorded for the FGF flow channel. […]

βKlotho-FGF19 = target: T2, βKlotho-FGF19 (Mus musculus, UniProt Q99N32); assay: SPR specificity: βKlotho binding to immobilized FGF19^23-216; set-up: species or system murine βKlotho, human FGF19; settings: molar ratio of 2:1 to βKlotho
T2 construct: the ectodomain of murine βKlotho (F53 to L995) was expressed in HEK293 cells; FLAG (C); made in house; host or cells: HEK293 (βKlotho ectodomain); E. coli (FGF19)
T2 sequence (Q99N32 53-995): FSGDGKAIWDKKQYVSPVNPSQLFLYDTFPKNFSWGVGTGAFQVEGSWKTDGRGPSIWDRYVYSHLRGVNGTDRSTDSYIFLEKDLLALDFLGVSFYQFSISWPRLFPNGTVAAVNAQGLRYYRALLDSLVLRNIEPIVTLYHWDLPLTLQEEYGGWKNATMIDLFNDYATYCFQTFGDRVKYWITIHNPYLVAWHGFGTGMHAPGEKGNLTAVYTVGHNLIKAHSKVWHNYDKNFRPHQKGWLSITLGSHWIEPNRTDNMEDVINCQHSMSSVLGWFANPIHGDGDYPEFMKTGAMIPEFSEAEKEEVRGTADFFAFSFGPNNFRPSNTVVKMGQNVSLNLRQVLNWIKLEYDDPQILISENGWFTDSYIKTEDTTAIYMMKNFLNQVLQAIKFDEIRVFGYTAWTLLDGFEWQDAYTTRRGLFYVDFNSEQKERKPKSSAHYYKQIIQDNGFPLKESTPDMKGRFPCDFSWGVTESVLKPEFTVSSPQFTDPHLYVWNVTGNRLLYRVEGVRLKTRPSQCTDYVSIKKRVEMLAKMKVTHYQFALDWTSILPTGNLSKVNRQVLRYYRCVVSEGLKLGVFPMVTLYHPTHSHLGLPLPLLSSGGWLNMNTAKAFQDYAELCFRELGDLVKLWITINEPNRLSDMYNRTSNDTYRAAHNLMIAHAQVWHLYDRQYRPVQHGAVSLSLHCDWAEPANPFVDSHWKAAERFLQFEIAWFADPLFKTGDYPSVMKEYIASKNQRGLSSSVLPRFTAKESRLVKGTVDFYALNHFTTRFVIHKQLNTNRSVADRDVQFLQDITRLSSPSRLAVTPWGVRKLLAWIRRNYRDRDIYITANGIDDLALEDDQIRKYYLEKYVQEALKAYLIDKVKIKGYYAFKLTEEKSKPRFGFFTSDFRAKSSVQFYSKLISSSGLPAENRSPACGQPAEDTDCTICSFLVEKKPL

Molecule | binding of Klotho ectodomain to immobilized FGF23 (Klotho ectodomain) | inhibition of βKlotho binding to immobilized FGF19 (βKlotho-FGF19)
FGF23^28-251: human FGF23 (A28 to I251), bioactive full-length ligand expressed in E. coli (protein, listed as Homo sapiens) ASPLLGSSWGGLIHLYTATARNSYHLQIHKNGHVDGAPHQTIYSALMIRSEDAGFVVITGVMSRRYLCMDFRGNIFGSHYFDPENCRFQHQTLENGYDVYHSPQYHFLVSLGRAKRAFLPGMNPPPYSQFLSRRNEIPLIHFNTPIPRRHTRSAEDDSERDPLNVLKPRARMTPAPASCSQELPSAEDNSPMASDPLGVVRGGRVNTHAGGTGPEGCRPFAKFI | bound poorly | 
FGF23^180-251: 72-amino acid C-terminal tail of human FGF23 (S180 to I251), expressed in E. coli (protein, listed as Homo sapiens) SAEDDSERDPLNVLKPRARMTPAPASCSQELPSAEDNSPMASDPLGVVRGGRVNTHAGGTGPEGCRPFAKFI |  | failed to inhibit; also recorded: no inhibition

Reference: patent US8889621B2, “Inhibiting binding of FGF23 to the binary FGFR-Klotho complex for the treatment of hypophosphatemia” (New York University, priority 2009, dated 2014)
